Assay results from US20230242646A1 (JJP BIOLOGICS SP Z O O, published 2023).

Legend:
[1] = molecular target: T1, membrane-bound full-length human CD89 on HEK293F cells (human, UniProt P24071 22-287); experiment: FACS HEK293F-huCD89, 10 ug/mL; competitor PE-A59
T1 construct: 2 or transient transfectants; also called membrane human CD89; human FcaRI
Procedure: (§1) Then, 10 µL/tube (i.e., 0.1 × 10⁶ cells) of these cells were incubated with or without 100 µL purified mouse anti-human CD89 antibody at 10 µg/mL (in PBS/BSA/NaN₃) for 30 minutes at 4° C. […] After extensive washing in PBS/BSA/NaN₃, cells were fixed in 2% formaldehyde in PBS/BSA/NaN₃ for 30 minutes at 4° C.

[2] = molecular target: T2, recombinant C-terminal polyhistidine-tagged human (extracellular) CD89 (Sino Biological) (human, UniProt P24071 22-227); experiment: ELISA on coated rhuCD89
T2 construct: extracellular domain; bought protein; also called rhuCD89; soluble monomeric rhuCD89
Procedure: (§2) After extensive washing with PBS/0.05% Tween 20, plates were blocked with PBS/0.05% Tween 20/1% BSA (Roche) for 1 hour at RT. Subsequently, plates were incubated with 50 µL titrated (in block buffer) purified mouse anti-human CD89 antibody/well for 1 hour at RT. […] After extensive washing in PBS/0.05% Tween 20, binding of antibodies on rhuCD89 was determined with 1:5,000 diluted horseradish peroxidase (HRP)-conjugated goat anti-mouse IgG Fcy-specific antibodies (Jackson ImmunoResearch) for 1 hour at RT, followed by a ready-to-use solution of TMB substrate (Invitrogen) for colorimetric detection.

[3] = molecular target: T3, membrane full-length cynomolgus monkey CD89 on HEK293F cells (cynomolgus monkey); experiment: FACS, transiently transfected HEK293F
T3 construct: also called cynoCD89; cynomolgus EC1-CD89
T3 chain: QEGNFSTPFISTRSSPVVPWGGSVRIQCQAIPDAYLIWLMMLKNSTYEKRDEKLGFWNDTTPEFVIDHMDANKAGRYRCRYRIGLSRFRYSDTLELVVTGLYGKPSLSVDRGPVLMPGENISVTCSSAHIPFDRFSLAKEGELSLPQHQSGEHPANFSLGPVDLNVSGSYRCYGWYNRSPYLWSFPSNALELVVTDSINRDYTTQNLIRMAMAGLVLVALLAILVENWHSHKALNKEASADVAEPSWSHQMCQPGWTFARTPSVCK
Procedure: To this end, transient transfected HEK293F cells were put at 10 x 10⁶ cells/mL in ice-chilled phosphate-buffered saline containing 0.1% BSA (Sigma)/0.05% NaN₃ (PBS/BSA/NaN₃) supplemented with 50 µg/mL human IgGs (blocking FcY receptors; Sigma) for 10 minutes at 4° C. Then, 10 µL/tube (i.e., 0.1 × 10⁶ cells) of these cells were incubated with or without 100 µL purified mouse anti-human CD89 antibody at 10 µg/mL (in PBS/BSA/NaN₃) for 30 minutes at 4° C. […] After extensive washing in PBS/BSA/NaN₃, cells were subsequently incubated with 1:200 diluted PE-conjugated goat anti-mouse IgG Fcy-specific antibodies (Jackson ImmunoResearch) for 30 minutes at 4° C. After extensive washing in PBS/BSA/NaN₃, cells were fixed in 2% formaldehyde in PBS/BSA/NaN₃ for 30 minutes at 4° C.

[4] = molecular target: T1, membrane-bound full-length human CD89 …; experiment: FACS HEK293F-huCD89
Procedure: After extensive washing in PBS/BSA/NaN₃, cells were subsequently incubated with 1:200 diluted PE-conjugated goat anti-human IgG Fcy-specific antibodies (Jackson ImmunoResearch) for 30 minutes at 4° C. After extensive washing in PBS/BSA/NaN₃, cells were fixed in 2% formaldehyde in PBS/BSA/NaN₃ for 30 minutes at 4° C.

[5] = molecular target: T1, membrane-bound full-length human CD89 …; experiment: FACS HEK293F-huCD89, 10 ug/mL; competitor PE-MIP8a
Procedure: as §1

[6] = molecular target: T1, membrane-bound full-length human CD89 …; experiment: FACS HEK293F-huCD89, 10 ug/mL; competitor PE-A3
Procedure: as §1

[7] = molecular target: T2, recombinant C-terminal …; experiment: ELISA, antibody before serum IgA on coated rhuCD89; IgA detected
Procedure: After extensive washing with PBS/0.05% Tween 20, plates were blocked with PBS/0.05% Tween 20/1% BSA (Roche) for 1 hour at RT. Subsequently, plates were incubated with 25 µL titrated (in block buffer) purified mouse anti-human CD89 antibody/well for 30 minutes at RT. […] After extensive washing in PBS/0.05% Tween 20, 1:10,000 diluted HRP-conjugated streptavidin (Jackson ImmunoResearch) was added, and incubated for 1 hour at RT, followed by a ready-to-use solution of TMB substrate (Invitrogen) for colorimetric detection.

[8] = molecular target: T1, membrane-bound full-length human CD89 …; experiment: FACS on HEK293F-huCD89
Procedure: Then, 10 µL/tube (i.e., 0.1 x 10⁶ cells) of these cells were incubated with 100 µL titrated (in PBS/BSA/NaN₃) purified mouse anti-human CD89 antibody/tube for 30 minutes at 4° C. […] After extensive washing in PBS/BSA/NaN₃, cells were subsequently incubated with 1:200 diluted PE-conjugated goat anti-mouse IgG Fcy-specific antibodies (Jackson ImmunoResearch) for 30 minutes at 4° C. After extensive washing in PBS/BSA/NaN₃, cells were fixed in 2% formaldehyde in PBS/BSA/NaN₃ for 30 minutes at 4° C.

[9] = molecular target: T1, membrane-bound full-length human CD89 …; experiment: FACS, antibody before serum IgA on HEK293F-huCD89; IgA detected
[10] = molecular target: T4, chimeric human/cynomolgus monkey CD89-III on HEK293F cells (human/cynomolgus chimera, UniProt P24071 22-287); experiment: FACS, transiently transfected HEK293F
T4 construct: also called dGly72 - Gly96 human EC1-CD89; III (72-96)
T4 chain: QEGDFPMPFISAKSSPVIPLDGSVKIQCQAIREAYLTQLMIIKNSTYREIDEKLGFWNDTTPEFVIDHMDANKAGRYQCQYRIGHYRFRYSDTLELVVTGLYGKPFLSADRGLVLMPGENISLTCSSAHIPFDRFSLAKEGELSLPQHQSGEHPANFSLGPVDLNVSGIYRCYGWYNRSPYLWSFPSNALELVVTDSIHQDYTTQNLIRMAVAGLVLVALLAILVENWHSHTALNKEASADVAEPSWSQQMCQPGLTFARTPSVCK
Procedure: (§3) To this end, transient transfected HEK293F cells were put at 10 × 10⁶ cells/mL in ice-chilled phosphate-buffered saline containing 0.1% BSA (Sigma)/0.05% NaN₃ (PBS/BSA/NaN₃) supplemented with 50 µg/mL human IgGs (blocking FcY receptors; Sigma) for 10 minutes at 4° C. Then, 10 µL/tube (i.e., 0.1 × 10⁶ cells) of these cells were incubated with or without 100 µL purified mouse anti-human CD89 antibody at 10 µg/mL (in PBS/BSA/NaN₃) for 30 minutes at 4° C. […] After extensive washing in PBS/BSA/NaN₃, cells were subsequently incubated with 1:200 diluted PE-conjugated goat anti-mouse IgG Fcy-specific antibodies (Jackson ImmunoResearch) for 30 minutes at 4° C. After extensive washing in PBS/BSA/NaN₃, cells were fixed in 2% formaldehyde in PBS/BSA/NaN₃ for 30 minutes at 4° C.

[11] = molecular target: T5, chimeric human/cynomolgus monkey CD89-hotspots on HEK293F cells (human/cynomolgus chimera, UniProt P24071 22-287); experiment: FACS, transiently transfected HEK293F
T5 construct: also called dThr58, Gln59; dArg73, Arg74, Lys76
T5 chain: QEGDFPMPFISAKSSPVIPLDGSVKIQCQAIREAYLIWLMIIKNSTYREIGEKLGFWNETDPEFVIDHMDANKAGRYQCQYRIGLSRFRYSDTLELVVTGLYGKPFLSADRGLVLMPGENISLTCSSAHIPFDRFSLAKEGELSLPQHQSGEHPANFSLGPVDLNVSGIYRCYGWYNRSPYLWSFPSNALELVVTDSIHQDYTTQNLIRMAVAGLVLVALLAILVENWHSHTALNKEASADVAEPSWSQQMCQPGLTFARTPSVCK
Procedure: as §3

[12] = molecular target: T2, recombinant C-terminal …; experiment: ELISA, coated rhuCD89
Procedure: as §2
After extensive washing with PBS/0.05% Tween 20, plates were blocked with PBS/0.05% Tween 20/1% BSA (Roche) for 1 hour at RT. […] After extensive washing in PBS/0.05% Tween 20, binding of antibodies on rhuCD89 was determined with 1:5,000 diluted horseradish peroxidase (HRP)-conjugated goat anti-human IgG Fcy-specific antibodies (Jackson ImmunoResearch) for 1 hour at RT, followed by a ready-to-use solution of TMB substrate (Invitrogen) for colorimetric detection.

[13] = molecular target: T1, membrane-bound full-length human CD89 …; experiment: FACS, antibody before secretory IgA on HEK293F-huCD89; IgA detected
Procedure: Then, 10 µL/tube (i.e., 0.1 x 10⁶ cells) of these cells were incubated with or without 50 µL titrated (in PBS/BSA/NaN₃) purified mouse anti-human CD89 antibody/tube for 30 minutes at 4° C. […] After extensive washing in PBS/BSA/NaN₃, 1:200 diluted PE-conjugated streptavidin (Jackson ImmunoResearch) was added, and incubated for 30 minutes at 4° C. After extensive washing in PBS/BSA/NaN₃, cells were fixed in 4% formaldehyde in PBS/BSA/NaN₃ for 30 minutes at 4° C.

[14] = molecular target: T6, chimeric human/cynomolgus monkey CD89-IV on HEK293F cells (human/cynomolgus chimera, UniProt P24071 22-287); experiment: FACS, 10 µg/mL, transiently transfected HEK293F
T6 construct: also called dArg97 - Gly121 human EC1-CD89
T6 chain: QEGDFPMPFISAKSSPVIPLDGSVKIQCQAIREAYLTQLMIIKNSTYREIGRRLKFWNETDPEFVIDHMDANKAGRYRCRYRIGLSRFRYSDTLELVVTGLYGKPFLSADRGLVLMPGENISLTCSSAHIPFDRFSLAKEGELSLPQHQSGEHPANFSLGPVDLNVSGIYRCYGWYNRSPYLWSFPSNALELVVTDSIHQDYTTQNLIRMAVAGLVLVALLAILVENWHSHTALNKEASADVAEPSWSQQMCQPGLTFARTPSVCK

[15] = molecular target: T7, chimeric human/cynomolgus monkey CD89-I on HEK293F cells (human/cynomolgus chimera, UniProt P24071 22-287); experiment: FACS, 10 µg/mL, transiently transfected HEK293F
T7 construct: also called dGln22 - Lys46 human EC1-CD89; I (22-46)
T7 chain: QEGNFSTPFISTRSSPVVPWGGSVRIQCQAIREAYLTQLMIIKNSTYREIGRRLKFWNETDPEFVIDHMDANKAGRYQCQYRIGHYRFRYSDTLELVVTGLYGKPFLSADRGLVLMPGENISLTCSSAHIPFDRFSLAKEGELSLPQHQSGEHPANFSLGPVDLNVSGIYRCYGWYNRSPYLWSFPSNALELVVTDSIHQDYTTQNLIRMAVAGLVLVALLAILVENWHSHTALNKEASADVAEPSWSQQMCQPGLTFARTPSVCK

[16] = molecular target: T8, chimeric human/cynomolgus monkey CD89-II on HEK293F cells (human/cynomolgus chimera, UniProt P24071 22-287); experiment: FACS, 10 µg/mL, transiently transfected HEK293F
T8 construct: also called dIle47 - Ile71 human EC1-CD89; II (47-71)
T8 chain: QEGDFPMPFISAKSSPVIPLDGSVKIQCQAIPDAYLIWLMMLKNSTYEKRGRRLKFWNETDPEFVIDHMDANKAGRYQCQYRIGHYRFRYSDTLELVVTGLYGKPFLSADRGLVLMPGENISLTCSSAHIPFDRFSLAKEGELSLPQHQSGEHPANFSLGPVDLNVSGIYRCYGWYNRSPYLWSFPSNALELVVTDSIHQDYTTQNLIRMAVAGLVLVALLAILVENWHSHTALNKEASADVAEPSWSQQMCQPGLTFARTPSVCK

[17] = molecular target: T9, chimeric bovine EC1-Fcgamma2R/human EC2-CD89 on HEK293F cells (bovine/human chimera); experiment: FACS, transiently transfected HEK293F
T9 chain: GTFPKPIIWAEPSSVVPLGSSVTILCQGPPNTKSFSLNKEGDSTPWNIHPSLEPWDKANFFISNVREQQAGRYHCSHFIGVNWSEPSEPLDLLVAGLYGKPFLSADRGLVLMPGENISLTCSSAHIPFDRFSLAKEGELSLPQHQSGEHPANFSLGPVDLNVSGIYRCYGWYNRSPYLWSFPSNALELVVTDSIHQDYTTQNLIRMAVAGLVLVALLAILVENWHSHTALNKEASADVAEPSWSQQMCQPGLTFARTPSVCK

B1: CD89/IgA blocking mouse anti-human CD89-specific antibody 8F3 (antibody, V domains shown)
VH: EVQLVESGGGLVKPGGSLKLSCAASGFTFSNYGMSWVRQTPDKRLEWVATMHSGGTYTYYPDNVKGRFTISRDNAKNNLYLQMSSLRSEDTAMYYCARETGLYDGLFDFWGQGTTLTVSS
VL: DVQITQSPSYLAASPGETITINCRASKTISKYLAWYQEKPGKTNMLLIYSGSTLQSGVPSRFSGSGSGTDFTLTISSLEPEDLAMYYCQQHDEYPWTFGGGTKLEIK
notes: also called mouse 8F3
[1]
  % blocking of PE-A59 binding: < 25%
[2]
  EC50 (read off the curve): ~0.03 µg/mL
[3]
  binding result: no binding (tested: 10 µg/mL)
[4]
  EC50: 0.714 µg/mL
[5]
  % blocking of PE-MIP8a binding: < 25%
[6]
  % blocking of PE-A3 binding: < 25%
[7]
  IC50 (read off the curve): ~0.09 µg/mL
[8]
  EC50 (read off the curve): ~0.4 µg/mL
[9]
  IC50 (read off the curve): ~0.8 µg/mL
[10]
  binding result: no binding (tested: 10 µg/mL)
[11]
  binding result: no binding (tested: 10 µg/mL)
[12]
  EC50: 0.052 µg/mL
[13]
  IC50 (read off the curve): ~0.8 µg/mL
[14]
  binding result: binds
[15]
  binding result: binds
[16]
  binding result: binds
[17]
  binding result: no binding (tested: 10 µg/mL)
